# Source: article PMC4831350
# Assays:
# [1] = biological target: human receptor for advanced glycation endproducts (RAGE) on A375-hRAGE cells (human) (UniProt Q15109)
# [2] = biological target: receptor for advanced glycation endproducts (RAGE) on wild-type A375 cells (human (endogenous in A375)) (UniProt Q15109)
# [3] = biological target: extracellular S100A4 secreted by A375-hS100A4 cells (human) (UniProt P26447)
# [4] = biological target: extracellular S100A4 secreted by A375 cells (human (endogenous in A375)) (UniProt P26447)
substance,measurement,setting,value
extracellular S100A4 secreted by A375 cells (from UniProt P26447 1-101) (natural protein),"decrease of invasion of A375-hRAGE cells (Boyden chamber with Matrigel) with blocking anti-RAGE antibody (10 μg/ml; R&D), against untreated cells",[1],15%
same,"decrease of migration of A375-hRAGE cells (Boyden chamber) with blocking anti-RAGE antibody (10 μg/ml; R&D), against untreated cells",[1],10%
recombinant human S100A4 (from UniProt P26447 1-101) (natural protein),"increase of invasion of A375 cells (Boyden chamber with Matrigel) with recombinant S100A4 (150 ng/ml), against untreated cells",[2],21%
same,"increase of migration of A375 cells (Boyden chamber) with recombinant S100A4 (150 ng/ml), against untreated cells",[2],36%
same,"increase of invasion of A375-hRAGE cells (Boyden chamber with Matrigel) with recombinant S100A4 (3000 ng/ml), against untreated cells",[1],13%
same,"increase of migration of A375-hRAGE cells (Boyden chamber) with recombinant S100A4 (3000 ng/ml), against untreated cells",[1],23%
soluble RAGE (sRAGE) (domain or fragment),"decrease of invasion of A375-hS100A4 cells (Boyden chamber with Matrigel) with sRAGE (150 ng/ml), against untreated cells; blocks extracellular S100A4 from membrane RAGE",[3],15%
same,"decrease of migration of A375-hS100A4 cells (Boyden chamber) with sRAGE (150 ng/ml), against untreated cells; blocks extracellular S100A4 from membrane RAGE",[3],24%
same,"relative migration of A375 cells (Boyden chamber) with sRAGE (150 ng/ml), untreated cells set as 100%; blocks extracellular S100A4 from membrane RAGE",[4],63%
